Key:
human CD3 = human CD3 (human, UniProt P07766 23-207; P09693 23-182; P04234 22-171; P20963 22-164); assay: cell-based or functional assay
human CD33 = human CD33 (human, UniProt P20138 18-364); assay: cell-based or functional assay
Chain of human CD33 (P20138 18-364): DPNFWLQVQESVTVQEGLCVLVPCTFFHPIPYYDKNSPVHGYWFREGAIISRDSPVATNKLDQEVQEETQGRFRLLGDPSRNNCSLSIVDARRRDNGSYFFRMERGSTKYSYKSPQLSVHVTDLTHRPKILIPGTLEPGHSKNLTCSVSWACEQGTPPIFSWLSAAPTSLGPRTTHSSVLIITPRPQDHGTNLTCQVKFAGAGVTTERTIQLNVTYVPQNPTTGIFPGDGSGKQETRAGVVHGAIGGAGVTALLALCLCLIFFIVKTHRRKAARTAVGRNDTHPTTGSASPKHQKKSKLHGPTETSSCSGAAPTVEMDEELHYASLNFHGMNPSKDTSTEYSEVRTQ

Chain of human CD3 (P07766 23-207, chain 1 of 4): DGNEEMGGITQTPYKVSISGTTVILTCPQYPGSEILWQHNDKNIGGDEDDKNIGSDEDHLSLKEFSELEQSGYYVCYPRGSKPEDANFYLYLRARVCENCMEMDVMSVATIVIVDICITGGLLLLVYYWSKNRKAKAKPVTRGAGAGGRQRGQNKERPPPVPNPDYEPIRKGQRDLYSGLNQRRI
Chain of human CD3 (P09693 23-182, chain 2 of 4): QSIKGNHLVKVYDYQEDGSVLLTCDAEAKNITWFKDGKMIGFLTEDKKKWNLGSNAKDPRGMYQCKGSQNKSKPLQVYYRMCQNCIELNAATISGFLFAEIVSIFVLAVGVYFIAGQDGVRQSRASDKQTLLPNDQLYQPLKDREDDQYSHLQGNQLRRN
Chain of human CD3 (P04234 22-171, chain 3 of 4): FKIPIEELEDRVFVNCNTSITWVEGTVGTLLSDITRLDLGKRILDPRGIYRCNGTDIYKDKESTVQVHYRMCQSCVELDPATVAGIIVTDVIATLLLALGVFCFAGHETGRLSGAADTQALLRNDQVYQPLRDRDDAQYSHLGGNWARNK
Chain of human CD3 (P20963 22-164, chain 4 of 4): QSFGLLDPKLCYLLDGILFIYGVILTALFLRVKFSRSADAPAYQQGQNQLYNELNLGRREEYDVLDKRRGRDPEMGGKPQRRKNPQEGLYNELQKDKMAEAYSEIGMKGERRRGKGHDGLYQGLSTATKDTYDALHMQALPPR

CD69 Induction EC50 (PBMC, 24 h) (human CD3) [nM]	CD25 Induction EC50 (PBMC, 24 h) (human CD3) [nM]	IC50 lysis of KG-1 cells with human T cells, E:T 5:1, 24 h (human CD33) [nM]	Binder
0.057	–	–	CD33/CD3 2×2 T-cell engager 24 (bispecific antibody) DIQMTQSPSSLSASVGDRVTITCRSSTGAVTTSNYANWVQQKPGKAPKALIGGTNKRAPGVPSRFSGSLIGDKATLTISSLQPEDFATYYCALWYSNLWVFGQGTKVEIKGGSGGSQVQLVQSGAEVKKPGSSVKVSCKASGGTFDSYAISWVRQAPGQGLEWMGGIIPIFGSAHYSQKFQGRVTITADESTSTAYMELSSLRSEDTAVYYCAREYYYDSSEWAFDIWGQGTLVTVSSGGSGQSVLTQPPSASGTPGQRVTISCSGSSSNIGDNVVNWYQQLPGTAPKLLIYSTNKRPSGVPDRFSGSKSGSSASLAISGLQSEDEADYYCAAWDDSLSAYVFGGGTKLTVLGGSGGSEVQLVESGGGLVQPGGSLRLSCAASGFTFSTYAMNWVRQAPGKGLEWVGRIRSKYNNYATYYADSVKDRFTISRDDSKNSLYLQMNSLKTEDTAVYYCARHGNFGNSYVSYFAYWGQGTLVTVSSAAAGSHHHHHH
0.004	0.01	–	CD33/CD3 2×2 T-cell engager 22 (bispecific antibody) DIQMTQSPSSLSASVGDRVTITCRSSTGAVTTSNYANWVQQKPGKAPKALIGGTNKRAPGVPSRFSGSLIGDKATLTISSLQPEDFATYYCALWYSNLWVFGQGTKVEIKGGSGGSQVQLVQSGAEVKKPGSSVKVSCKASGGTFSSYGISWVRQAPGQGLEWMGGIIPIFGSAHYAQKFQGRVTITADESTSTAYMELSSLRSEDTAVYYCAREYYYDSSEWAFDIWGQGTLVTVSSGGSGQSVLTQPPSASGTPGQRVTISCSGSSSNIGSNTVKWYQQLPGTAPKLLIYSNNQRSSGVPDRFSGSKSGSSASLAISGLQSEDEADYYCAAWDDSLNGYVFGGGTKLTVLGGSGGSEVQLVESGGGLVQPGGSLRLSCAASGFTFSTYAMNWVRQAPGKGLEWVGRIRSKYNNYATYYADSVKDRFTISRDDSKNSLYLQMNSLKTEDTAVYYCARHGNFGNSYVSYFAYWGQGTLVTVSSAAAGSHHHHHH
0.005	0.009	~0.005	CD33/CD3 2×2 T-cell engager 19 (bispecific antibody) DIQMTQSPSSLSASVGDRVTITCRSSTGAVTTSNYANWVQQKPGKAPKALIGGTNKRAPGVPSRFSGSLIGDKATLTISSLQPEDFATYYCALWYSNLWVFGQGTKVEIKGGSGGSQVQLVQSGAEVKKPGASVKVSCKASGYTFTSYYMHWVRQAPGQGLEWMGIINPSGGSTSYAQKFQGRVTMTRDTSTSTVYMELSSLRSEDTAVYYCARDVVPAAIDYYGMDVWGQGTTVTVSSGGSGQSVLTQPPSASGTPGQRVTISCSGSSSNIGSNTVNWYQQLPGTAPKLLIYSDNQRPSGVPDRFSGSKSGSSASLAISGLQSDDEADYYCATWDDSLNGAVFGGGTKLTVLGGSGGSEVQLVESGGGLVQPGGSLRLSCAASGFTFSTYAMNWVRQAPGKGLEWVGRIRSKYNNYATYYADSVKDRFTISRDDSKNSLYLQMNSLKTEDTAVYYCARHGNFGNSYVSYFAYWGQGTLVTVSSAAAGSHHHHHH
0.017	0.041	–	CD33/CD3 2×2 T-cell engager 23 (bispecific antibody) DIQMTQSPSSLSASVGDRVTITCRSSTGAVTTSNYANWVQQKPGKAPKGLIGGTNKRAPGVPSRFSGSLIGTDFTLTISSLQPEDFATYYCALWYSNLWVFGQGTKVEIKGGSGGSQVQLVQSGAEVKKPGSSVKVSCKASGGTFSSYGISWVRQAPGQGLEWMGGIIPIFGSAHYAQKFQGRVTITADESTSTAYMELSSLRSEDTAVYYCAREYYYDSSEWAFDIWGQGTLVTVSSGGSGQSVLTQPPSASGTPGQRVTISCSGSSSNIGSNTVKWYQQLPGTAPKLLIYSNNQRSSGVPDRFSGSKSGSSASLAISGLQSEDEADYYCAAWDDSLNGYVFGGGTKLTVLGGSGGSEVQLVESGGGLVQPGGSLRLSCAASGFTFSTYAMNWVRQAPGKGLEWVGRIRSKYNNYATYYADSVKDRFTISRDDSKNSLYLQMNSLKTEDTAVYYCARHGNFGNSYVSWFAYWGQGTLVTVSS

Second part, the binder before the results:

Binder	CD69 Induction EC50 (PBMC, 24 h) (human CD3) [nM]	CD25 Induction EC50 (PBMC, 24 h) (human CD3) [nM]	IC50 lysis of KG-1 cells with human T cells, E:T 5:1, 24 h (human CD33) [nM]
CD33/CD3 2×2 T-cell engager 21 (bispecific antibody) DIQMTQSPSSLSASVGDRVTITCRSSTGAVTTSNYANWVQQKPGKAPKALIGGTNKRAPGVPSRFSGSLIGDKATLTISSLQPEDFATYYCALWYSNLWVFGQGTKVEIKGGSGGSQVQLVQSGAEVKKPGSSVKVSCKASGGTFSSYAISWVRQAPGQGLEWMGGIYPIFGSANYAQKFQGRVTITADESTSTAYMELSSLRSEDTAVYYCAREYYYDSSEWAFDIWGQGTLVTVSSGGSGQSVLTQPPSASGTPGQRVTISCSGSSSNIGSNIVNWYQQLPGTAPKLLIYSNNQRPSGVPDRFSGSKSGTSASLAISGLQSEDEADYYCAAWDDSLKGYVFGGGTKLTVLGGSGGSEVQLVESGGGLVQPGGSLRLSCAASGFTFSTYAMNWVRQAPGKGLEWVGRIRSKYNNYATYYADSVKDRFTISRDDSKNSLYLQMNSLKTEDTAVYYCARHGNFGNSYVSYFAYWGQGTLVTVSSAAAGSHHHHHH	0.225	–	–
CD33/CD3 2×2 T-cell engager 17 (bispecific antibody) DIQMTQSPSSLSASVGDRVTITCRSSTGAVTTSNYANWVQQKPGKAPKALIGGTNKRAPGVPSRFSGSLIGDKATLTISSLQPEDFATYYCALWYSNLWVFGQGTKVEIKGGSGGSQVQLVQSGAEVKKPGESLKISCKGSGYSFTSYWIGWVRQMPGKGLEWMGIIYPGDSDTRYSPSFQGQVTISADKSISTAYLQWSSLKASDTAMYYCARHKRGSDAFDIWGQGTTVTVSSGGSGQSVLTQPPSVSGAPGQRVTISCTGSSSNIGAGYDVHWYQQLPGTAPKLLIYGNSNRPSGVPDRFSGSKSGTSASLAITGLQAEDEADYYCQSYDSSLSDVVFGGGTKLTVLGGSGGSEVQLVESGGGLVQPGGSLRLSCAASGFTFSTYAMNWVRQAPGKGLEWVGRIRSKYNNYATYYADSVKDRFTISRDDSKNSLYLQMNSLKTEDTAVYYCARHGNFGNSYVSYFAYWGQGTLVTVSSAAAGSHHHHHH	0.114	0.03	–
CD33/CD3 2×2 T-cell engager 05 (bispecific antibody) DIQMTQSPSSLSASVGDRVTITCRSSTGAVTTSNYANWVQQKPGKAPKGLIGGTNKRAPGVPARFSGSGSGTDFTLTISSLQPEDFATYYCALWYSNLWVFGQGTKVEIKGGSGGSQVQLVQSGAEVKKPGASVKVSCKASGYTFTSYDINWVRQAPGQGLEWMGWMNPNSGNTGFAQKFQGRVTMTRDTSTSTVYMELSSLRSEDTAVYYCARDRANTDYSFGMDVWGQGTLVTVSSGGSGGQSVLTQPPSASGTPGQRVTISCSGSRSNIGSNTVNWYQQLPGTAPKLLIYGNNQRPSGVPDRFSGSKSGTSASLAISGLQSEDEADYYCATWDDSLIGWVFGGGTKLTVLGGSGGSEVQLVESGGGLVQPGGSLRLSCAASGFTFSTYAMNWVRQAPGKGLEWVGRIRSKYNNYATYYADSVKDRFTISRDDSKNSLYLQMNSLKTEDTAVYYCARHGNFGNSYVSWFAYWGQGTLVTVSSAAAGSHHHHHH	0.074	0.116	–
CD33/CD3 2×2 T-cell engager 06 (bispecific antibody) DIQMTQSPSSLSASVGDRVTITCRSSTGAVTTSNYANWVQQKPGKAPKGLIGGTNKRAPGVPARFSGSGSGTDFTLTISSLQPEDFATYYCALWYSNLWVFGQGTKVEIKGGSGGSQVQLVQSGAEVKKPGASVKVSCKASGYTFTSYDINWVRQAPGQGLEWMGWMNPNSGNTGFAQKFQGRVTMTRDTSTSTVYMELSSLRSEDTAVYYCARDRANTDYSLGMDVWGQGTLVTVSSGGSGGQSVLTQPPSASGTPGQRVTISCSGSRSNIGSNTVNWYQQLPGTAPKLLIYGNNQRPSGVPDRFSGSKSGTSASLAISGLQSEDEADYYCATWDDSLIGWVFGGGTKLTVLGGSGGSEVQLVESGGGLVQPGGSLRLSCAASGFTFSTYAMNWVRQAPGKGLEWVGRIRSKYNNYATYYADSVKDRFTISRDDSKNSLYLQMNSLKTEDTAVYYCARHGNFGNSYVSWFAYWGQGTLVTVSSAAAGSHHHHHH	0.021	0.039	–
